From US20150203556A1 (UAB RESEARCH FOUNDATION, published 2015)

B1: IL-20R1-FC (Fc fusion)
chain: VPCVSGGLPKPANITFLSINMKNVLQWTPPEGLQGVKVTYTVQYFIYGQKKWLNKSECRNINRTYCDLSAETSDYEHQYYAKVKAIWGTKCSKWAESGRFYPFLETQIGPPEVALTTDEKSISVVLTAPEKWKRNPEDLPVSMQQIYSNLKYNVSVLNTKSNRTWSQCVTNHTLVLTWLEPNTLYCVHVESFVPGPPRRAQPSEKQCARTLKDQSSEFKAKGSGGGGPSVFIFPPKIKDVLMISLSPIVTCVVVDVSEDDPDVQISWFVNNVEVHTAQTQTHREDYNSTLRVVSALPIQHQDWMSGKEFKCKVNNKDLPAPIERTISKPKGSVRAPQVYVLPPPCEEMTKKQVTLYCMVTDFMPEDIYVEWTNNGKTELNYKNTEPVLDSDGSYFMYSKLRVEKKNWVERNSYSCSVVHEGLHNHHTTKSFSRTPGKGLEASGGLNDIFEAQKIEWHEGTGHHHHHH
notes: also called IL-20R-fc
B2: IL22R1ddq-FCkh (MONO) (Fc fusion)
chain: AHAPEDPSDLLQHVKFQSSNFENILTWDSGPEGTPDTVYSIEYKTYGERDWVAKKGCQRITRKSCDLTVETGDLQELYYARVTAVSAGGRSATKMTDRFSSLQHTTLKPPDVTCISKVRSIQMIVHPTPTPIRAGDGHRLTLEDIFHDLFYHLELQVNRTYQMHLGGKQREYEFFGLTPDTEFLGTIMICVPTWAKESAPYMCRVKTLPDRTWTYSGSGGGGPSVFIFPPKIKDVLMISLSPIVTCVVVDVSEDDPDVQISWFVNNVEVHTAQTQTHREDYNSTLRVVSALPIQHQDWMSGKEFKCKVNNKDLPAPIERTISKPKGSVRAPQVYVLPPPCEEMTKKQVTLYCMVTDFMPEDIYVEWTNNGKTELNYKNTEPVLDSDGSYFMYSKLRVEKKNWVERNSYSCSVVHEGLHNHHTTKSFSRTPGKGLEASGGLNDIFEAQKIEWHEGTGHHHHHH
B3: IL-19/IL-20R2 binary complex (other)
chain 1: LRRCLISTDMHHIEESFQEIKRAIQAKDTFPNVTILSTLETLQIIKPLDVCCVTKNLLAFYVDRVFKDHQEPNPKILRKISSIANSFLYMQKTLRQCQEQRQCHCRQEATNATRVIHDNYDQLEVHAAAIKSLGELDVFLAWINKNHEVMFSA
chain 2: DEVAILPAPQQLSVLSTNMKHLLMWSPVIAPGETVYYSVEYQGEYESLYTSHIWIPSSWCSLTEGPECDVTDDITATVPYNLRVRATLGSQTSAWSILKHPFNRQSTILTRPGMEITKDGFHLVIELEDLGPQFEFLVAYWRREPGAEEHVKMVRSGGIPVHLETMEPGAAYCVKAQTFVKAIGRYSAFSQTECVEVQGEA
notes: IL-19 with IL-20R2 that carries no FC: amine coupled on the chip, or soluble; also called IL-19+soluble IL-20R2
B4: IL-20/IL-20R2 binary complex (other)
chain 1: MLKTLNLGSCVIATNLQEIRNGFSEIRGSVQAKDGNIDIRILRRTESLQDTKPANRCCLLRHLLRLYLDRVFKNYQTPDHYTLRKISSLANSFLTIKKDLRLCHAHMTCHCGEEAMKKYSQILSHFEKLEPQAAVVKALGELDILLQWMEETE
chain 2: B3 chain 2
notes: also called 20 + 20R2; IL-20+soluble IL-20R2
B5: soluble IL-20R2 (receptor)
chain: B3 chain 2
notes: also called IL-20R2* (amine coupled IL-20R2)

Tests used:
IL-20 [1] = molecular target: T1, IL-20 (human, UniProt Q9NYY1 25-176); test: SPR, site KD as listed in Table 5
T1 construct: The crystal model holds residues 24-176; also called Interleukin-20; IL-20b
T1 sequence: B4 chain 1

IL-20 [2] = molecular target: T1, IL-20; test: SPR (Biacore), IL-20 (10-0.625 µM) over IL-20R1-fc captured by anti-FC Ab
Description: (§1) FIGS. 12A-12H are graphs showing IL19/IL-20 receptor interactions and complex stability. SPR sensorgrams, data fits (black lines), KD values, and residual errors obtained for complexes described at the top of each panel. Panels are labeled as injected soluble proteins, followed by a semicolon (:), then the protein coupled to chip surface, IL-20R1 or IL-20R2. FIGS. 12A and 12B show injection of IL-19 and IL-20 (max conc.=10 μM, 2 fold diluted to 0.625 μM) over IL-20R1. FIGS. 12C and 12D show injection of IL-19 (max conc.=500 nM, 2-fold diluted to 3.91 nM) or IL-20 (max conc.=2000 nM, 2-fold diluted to 62.5 nM) over IL-20R2. FIGS. 12E-12H show IL-19 and IL-20 (fixed at 250 nM) mixed with different concentrations of IL-20R1, or IL-22R1, (max conc.=1000 nM, 2-fold diluted to 7.81 nM) and injected over IL-20R2. To estimate R1 chain affinity/complex stability, the contribution of the ligand was removed by using the 250 nM IL-19, or IL-20, sensorgram as the blank subtraction. All sensorgrams were fit to 1:1 binding models.
(§2) Surface Plasmon Resonance Experiments SPR experiments were performed on Biacore T-100, and T-200, (GE healthcare, Waukesha, Wis.) systems. […] Soluble proteins were injected for 75-90 seconds (30 uL/min) over the surfaces, and the dissociation phase was followed for 75-120 seconds depending on the stability of the complex being analyzed. […]

IL-19 [3] = molecular target: T2, IL-19 (human, UniProt Q9UHD0 25-177); test: SPR, IL-19 (10 µM, 2-fold diluted to 0.625 µM) injected over IL-20R1 (IL-20R1-fc in Table 4)
T2 construct: also called Interleukin-19; IL-19a
T2 sequence: B3 chain 1
Description: as §1, §2

IL-22 = molecular target: T3, IL-22 (Homo sapiens (Human), UniProt Q9GZX6 35-179, limits assumed); test: SPR, IL-22 as analyte over IL22R1ddq-FCkh (MONO) as ligand
T3 construct: also called IL-22 wt
T3 sequence: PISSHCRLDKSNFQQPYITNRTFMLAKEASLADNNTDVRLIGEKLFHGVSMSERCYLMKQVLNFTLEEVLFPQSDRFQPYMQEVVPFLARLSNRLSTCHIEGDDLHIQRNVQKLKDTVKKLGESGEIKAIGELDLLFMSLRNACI

IL-20R1 triple mutant M3 = molecular target: T4, IL-20R1 triple mutant M3 (UniProt Q9UHF4 29-245); test: SPR, IL-19 co-injected with M3 over an IL-20R2 coupled Biacore chip
T4 construct: range 29-245; also called IL-20R1 site 3 mutant
T4 sequence (looked up): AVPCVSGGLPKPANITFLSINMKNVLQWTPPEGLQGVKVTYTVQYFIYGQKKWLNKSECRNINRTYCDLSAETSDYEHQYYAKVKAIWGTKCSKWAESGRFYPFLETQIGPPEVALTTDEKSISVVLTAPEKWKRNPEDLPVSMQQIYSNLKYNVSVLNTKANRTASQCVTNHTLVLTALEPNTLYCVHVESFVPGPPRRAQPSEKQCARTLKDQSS
Description: FIGS. 9A-9D show the IL-20 site 3 interface is essential and distinct from other complexes. FIG. 9A is a ribbon diagram showing the site 3 interface between IL-20R1 and IL-20R2. FIG. 9B is a graph showing the importance of the site 3 interface in ternary complex formation. SPR sensograms obtained by injecting cytokines (IL-19 or IL-20, at 250 nM) and/or receptors (IL-20R1 or M3, at 425 nM), as labeled on the figure, over an IL-20R2 coupled biacore chip. Injection of IL-20+IL-20R1 results in a large response consistent with ternary complex formation. However, injection of IL-20+M3, an IL-20R1 site 3 mutant with S190^IL-20R1, W194^IL-20R1, and W207^IL-20R1 mutated to alanine drastically reduces binding due to disruption of ternary complex formation. Similar results are observed for complex formation by IL-19. FIG. 9C is a ribbon diagram of the superposition of the D2 domains of GHR site 1, IL-6R, and IL-20R1. The positions of the D2 domains of GHR site2, GP130, and IL-20R2 are shown, along with a schematic of the differences in their orientations. FIG. 9D is a ribbon diagram showing the putative model of the IL-22/IL-22R1/IL-10R2 complex based on the IL-20 ternary complex structure. […]

IL-22R1 (sIL-22R1DDQ) = molecular target: T5, IL-22R1 (sIL-22R1DDQ) (Homo sapiens (Human), UniProt Q8N6P7 16-226, limits assumed); test: SPR co-injection: IL-20 (1000-31.25 nM) with soluble IL-20R2 fixed at 500 nM over IL-22R1 coupled surface, 1:1 fit
T5 chain: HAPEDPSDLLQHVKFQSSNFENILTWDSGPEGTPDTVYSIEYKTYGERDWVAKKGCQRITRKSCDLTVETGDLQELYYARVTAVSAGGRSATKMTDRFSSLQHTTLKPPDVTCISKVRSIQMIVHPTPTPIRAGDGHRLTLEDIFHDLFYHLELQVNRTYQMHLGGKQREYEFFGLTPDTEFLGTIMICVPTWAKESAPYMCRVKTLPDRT
Description: (§3) FIGS. 13A-13D are graphs showing stability of IL-19 and IL-20 ternary complexes. Stability of the ternary complexes were determined by co-injecting IL-19+soluble IL-20R2 (FIGS. 13B and 13D), or IL-20+soluble IL-20R2 (FIGS. 13A and 13C), over an IL-20R1-FC coupled surface. The concentration of soluble IL-20R2 in these experiments was fixed at 500 nM. IL-19 and IL-20 concentrations varied from 1000 nM to 31.25 nM (2 fold dilutions). IL-19/soluble IL-20R2 and IL-20/IL-20R2 were also injected over an IL-22R1 coupled surface. The SPR sensorgrams are labeled as injected proteins, followed by a semicolon (:), then the protein coupled to the chip surface, IL-20R1 or IL-22R1. All sensograms yielding binding responses were fit to 1:1 binding models.
(§4) Surface Plasmon Resonance Experiments SPR experiments were performed on Biacore T-100, and T-200, (GE healthcare, Waukesha, Wis.) systems. Soluble IL-20R2 was amine coupled (100-130 RU) to CM5 research grade biacore chips in 10 mM sodium acetate, pH 5.0. IL-20R1-FC and IL-20R2-FC were coupled (60-120 RU) to CM5 chips using an anti-FC Ab coupling kit using the manufacturer's instructions (GE healthcare, Waukesha, Wis.). All binding experiments were performed in running buffer consisting of 10 mM Hepes, pH 7.4, 150 mM NaCl, 0.04% P20, and 0.1 mg/mL bovine serum albumin (Sigma, St. Louis, Mo.). No regeneration was performed between sample injections on IL-20R2 amine-coupled surfaces. IL-20R1-FC and IL-20R2-FC surfaces were regenerated after each sample injection with a 3-minute injection of glycine, pH 1.7. Soluble proteins were injected for 75-90 seconds (30 uL/min) over the surfaces, and the dissociation phase was followed for 75-120 seconds depending on the stability of the complex being analyzed. Where possible, the resultant sensorgrams were fit to 1:1 binding models using Biacore T-200 evaluation software version 1.

IL-20R1-FC = molecular target: B1; test: SPR co-injection: IL-20 (1000-31.25 nM) with soluble IL-20R2 fixed at 500 nM over IL-20R1-FC surface, 1:1 fit
Description: as §3, §4

IL-20 [4] = molecular target: T1, IL-20; test: SPR (Biacore), IL-20 over amine coupled IL-20R2, equilibrium affinity (no rate constants)
IL-19 [5] = molecular target: T2, IL-19; test: SPR (Biacore), IL-19 over amine coupled IL-20R2, 1:1 fit
Description: as §1
as §4, with “Where possible, the resultant sensorgrams were fit to 1:1 binding models using Biacore T-200 evaluation software version 1.” left out

With B1 the Kd (IL-20 [1]) was about 9000 nM, the Kd (IL-20 [2]) was about 9000 nM and the binding result (IL-19 [3]) was “no binding (tested: 10 µM)”.

For B2, the Kd (IL-22) was 3.34 nM.

B3: no binding (tested: 425 nM M3 with 250 nM IL-19) (IL-20R1 triple mutant M3).

With B4 the Kd (IL-22R1 (sIL-22R1DDQ)) was 1160 nM, the koff (IL-22R1 (sIL-22R1DDQ)) was 0.238 s⁻¹ and the kon (IL-22R1 (sIL-22R1DDQ)) was 205000 M⁻¹ s⁻¹. The Kd (IL-20R1-FC) was 1070 nM, the koff (IL-20R1-FC) was 0.0168 s⁻¹ and the kon (IL-20R1-FC) was 15700 M⁻¹ s⁻¹.

B5 showed a Kd (IL-20 [4]) of 870 nM, a Kd (IL-19 [5]) of 36.3 nM and a koff (IL-19 [5]) of 0.0398 s⁻¹. The kon (IL-19 [5]) was 1.1e+06 M⁻¹ s⁻¹.
